{"source": "paper PMC3858558", "about": "(2013)", "binders": {"B1": {"name": "type I LHRH receptor (protein)", "chain": "MANSASPEQNQNHCSAINNSIPLMQGNLPTLTLSGKIRVTVTFFLFLLSATFNASFLLKLQKWTQKKEKGKKLSRMKLLLKHLTLANLLETLIVMPLDGMWNITVQWYAGELLCKVLSYLKLFSMYAPAFMMVVISLDRSLAITRPLALKSNSKVGQSMVGLAWILSSVFAGPQLYIFRMIHLADSSGQTKVFSQCVTHCSFSQWWHQAFYNFFTFSCLFIIPLFIMLICNAKIIFTLTRVLHQDPHELQLNQSKNNIPRARLKTLKMTVAFATSFTVCWTPYYVLGIWYWFDPEMLNRLSDPVNHFFFLFAFLNPCFDPLIYGYFSL"}}, "key": {"[D-Trp6]LHRH [1]": {"molecular_target": "T1, [D-Trp6]LHRH (Homo sapiens, UniProt P01148, D-Trp6 analog, 125I-labeled radioligand)", "test": "radioligand competition assay, tumor membranes (patient 4)"}, "[D-Trp6]LHRH [2]": {"molecular_target": "T1, [D-Trp6]LHRH", "test": "radioligand competition assay, tumor membranes (patient 30)"}, "[D-Trp6]LHRH [3]": {"molecular_target": "T1, [D-Trp6]LHRH", "test": "radioligand competition assay, tumor membranes (mean of 7 specimens)"}, "[D-Trp6]LHRH [4]": {"molecular_target": "T1, [D-Trp6]LHRH", "test": "radioligand competition assay, tumor membranes (patient 6)"}, "[D-Trp6]LHRH [5]": {"molecular_target": "T1, [D-Trp6]LHRH", "test": "radioligand competition assay, tumor membranes (patient 35)"}, "[D-Trp6]LHRH [6]": {"molecular_target": "T1, [D-Trp6]LHRH", "test": "radioligand competition assay, tumor membranes (patient 15)"}, "[D-Trp6]LHRH [7]": {"molecular_target": "T1, [D-Trp6]LHRH", "test": "radioligand competition assay, tumor membranes (patient 12)"}, "[D-Trp6]LHRH [8]": {"molecular_target": "T1, [D-Trp6]LHRH", "test": "radioligand competition assay, tumor membranes (patient 9)"}}}
{"binder": "B1", "values": [{"measurement": "Kd", "setting": "[D-Trp6]LHRH [1]", "value": 1.35, "unit": "nM"}, {"measurement": "Kd", "setting": "[D-Trp6]LHRH [2]", "value": 6.36, "unit": "nM"}, {"measurement": "Kd", "setting": "[D-Trp6]LHRH [3]", "value": 3.69, "unit": "nM"}, {"measurement": "Kd", "setting": "[D-Trp6]LHRH [4]", "value": 1.37, "unit": "nM"}, {"measurement": "Kd", "setting": "[D-Trp6]LHRH [5]", "value": 2.18, "unit": "nM"}, {"measurement": "Kd", "setting": "[D-Trp6]LHRH [6]", "value": 4.81, "unit": "nM"}, {"measurement": "Kd", "setting": "[D-Trp6]LHRH [7]", "value": 6.03, "unit": "nM"}, {"measurement": "Kd", "setting": "[D-Trp6]LHRH [8]", "value": 3.73, "unit": "nM"}]}
